According to publication PMC9982585:

Target: Type I Human Collagen (human) (UniProt P02452)
Test: fluorescence polarisation; Cy5.5-labelled insulin formulated in saline (control) or in aCH (SPADE), mixed with a Type I human collagen solution at a predetermined w/w ratio; read immediately after mixing on a Molecular Devices Flexstation 3 plate reader

UniProt P02452, sequence (P02452 162-1218, chain 1 of 2): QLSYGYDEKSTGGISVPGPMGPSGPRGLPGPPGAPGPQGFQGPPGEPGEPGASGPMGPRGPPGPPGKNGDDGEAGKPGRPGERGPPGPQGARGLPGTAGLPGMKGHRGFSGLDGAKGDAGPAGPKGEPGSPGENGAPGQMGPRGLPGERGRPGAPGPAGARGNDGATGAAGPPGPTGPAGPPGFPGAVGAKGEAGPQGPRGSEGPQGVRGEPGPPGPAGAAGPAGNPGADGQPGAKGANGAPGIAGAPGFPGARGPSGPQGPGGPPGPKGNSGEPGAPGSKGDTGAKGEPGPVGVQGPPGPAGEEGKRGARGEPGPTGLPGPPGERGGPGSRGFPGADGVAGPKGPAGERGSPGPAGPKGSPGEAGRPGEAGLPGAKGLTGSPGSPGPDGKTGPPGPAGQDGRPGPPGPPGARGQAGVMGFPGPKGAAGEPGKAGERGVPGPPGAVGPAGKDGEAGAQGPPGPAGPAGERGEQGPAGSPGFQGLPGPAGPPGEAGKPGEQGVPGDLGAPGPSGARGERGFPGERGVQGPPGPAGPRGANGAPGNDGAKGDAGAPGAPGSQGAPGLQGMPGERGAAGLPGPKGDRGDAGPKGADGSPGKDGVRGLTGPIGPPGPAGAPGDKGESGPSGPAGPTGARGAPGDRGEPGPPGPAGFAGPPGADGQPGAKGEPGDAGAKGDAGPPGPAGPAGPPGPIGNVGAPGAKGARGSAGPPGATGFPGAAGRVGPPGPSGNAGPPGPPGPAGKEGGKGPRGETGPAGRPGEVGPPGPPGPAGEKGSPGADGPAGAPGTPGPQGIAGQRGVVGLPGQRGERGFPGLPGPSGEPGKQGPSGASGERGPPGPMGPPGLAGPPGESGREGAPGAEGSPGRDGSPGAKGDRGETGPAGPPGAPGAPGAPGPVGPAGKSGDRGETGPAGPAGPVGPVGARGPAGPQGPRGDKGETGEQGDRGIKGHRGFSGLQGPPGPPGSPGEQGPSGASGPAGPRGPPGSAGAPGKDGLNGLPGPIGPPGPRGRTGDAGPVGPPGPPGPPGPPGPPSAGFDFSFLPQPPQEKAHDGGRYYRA
UniProt P02452, sequence (P08123 80-1119, chain 2 of 2, further chain): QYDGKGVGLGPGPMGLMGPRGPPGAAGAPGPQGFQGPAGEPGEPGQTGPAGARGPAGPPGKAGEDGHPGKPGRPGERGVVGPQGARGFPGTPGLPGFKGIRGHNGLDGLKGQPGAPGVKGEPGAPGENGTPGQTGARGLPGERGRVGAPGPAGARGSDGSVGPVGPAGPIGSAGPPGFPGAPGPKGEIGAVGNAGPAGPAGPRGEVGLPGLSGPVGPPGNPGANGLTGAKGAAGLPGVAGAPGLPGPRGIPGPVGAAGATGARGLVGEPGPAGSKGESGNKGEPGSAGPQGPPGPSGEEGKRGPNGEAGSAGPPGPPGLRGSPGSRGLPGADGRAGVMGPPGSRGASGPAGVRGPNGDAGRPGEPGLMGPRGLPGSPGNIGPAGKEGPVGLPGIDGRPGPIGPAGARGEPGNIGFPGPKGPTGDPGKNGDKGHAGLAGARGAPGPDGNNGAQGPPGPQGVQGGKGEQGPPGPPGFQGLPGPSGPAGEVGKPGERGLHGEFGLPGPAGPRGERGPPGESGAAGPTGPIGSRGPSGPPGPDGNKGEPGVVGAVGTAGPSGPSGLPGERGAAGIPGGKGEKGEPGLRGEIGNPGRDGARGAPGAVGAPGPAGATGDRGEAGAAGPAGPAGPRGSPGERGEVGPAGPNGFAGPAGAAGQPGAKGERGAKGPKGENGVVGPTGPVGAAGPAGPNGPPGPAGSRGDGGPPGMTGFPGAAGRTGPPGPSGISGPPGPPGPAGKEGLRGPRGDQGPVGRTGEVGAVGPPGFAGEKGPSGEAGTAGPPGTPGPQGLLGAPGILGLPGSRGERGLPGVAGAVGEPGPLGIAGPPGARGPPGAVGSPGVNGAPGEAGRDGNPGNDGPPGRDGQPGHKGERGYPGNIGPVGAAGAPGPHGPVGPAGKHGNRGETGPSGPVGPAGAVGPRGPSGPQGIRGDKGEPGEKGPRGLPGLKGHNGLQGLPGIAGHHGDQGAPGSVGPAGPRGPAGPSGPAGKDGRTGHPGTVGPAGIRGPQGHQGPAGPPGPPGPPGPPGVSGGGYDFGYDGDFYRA

average polarisation of the saline control relative to the aCH (SPADE) formulation: 1.5 fold
Substance: Cy 5.5 fluorescently-labeled insulin (ligand)
